Measurements reported in publication PMC12489471, “A multi-dentate, cooperative interaction between endo- and exo-ribonucleases within the bacterial RNA degradosome” (Nucleic Acids Research, 2025).

Test system: PNPase core
Assay: Cryo-EM of E. coli PNPase core:RNase E complex
Format: binding
Details: 20 mM Tris–HCl pH 8.0, 25 mM MgCl2, 150 mM KCl, 1 mM TCEP
Procedure: The PNPase core encoding sequence from E. coli (aa 1–552), Salmonella enterica serovar Typhimurium (UniProt: Q8ZLT3) (aa 1–552), or Pseudomonas aeruginosa (strain PAO1, UniProt: Q9HV59) (aa 1–553) was amplified using corresponding genomic DNA as a template and cloned into pExp-Mxe-CHis expression vector. The protein of interest, produced as a fusion with C-terminal 8×His-tagged Mycobacterium xenopi GyrA intein, was expressed in Evo21(DE3) cells at 18°C overnight following induction with 0.4 mM IPTG. […] After cleavage, the protein buffer was exchanged using HiPrep 26/10 desalting column (Cytiva), and the protein solution was reapplied to Ni-NTA resin to remove His-tagged intein and uncleaved material. […]
Purified PNPase core and RNE-muGFP-CHis proteins were mixed in 1:2 ratio and their complex were separated on the Superdex 200 Increase 10/300 GL column (Cytiva) equilibrated with cryo-EM Buffer (20 mM Tris–HCl, pH 8.0, 25 mM MgCl2, 150 mM KCl, 1 mM TCEP). […] The samples were mixed with CHAPSO (3-([3-cholamidopropyl]dimethylammonio)-2-hydroxy-1-propanesulfonate) at a final concentration of 8 mM before being applied onto R2/2 Au Ultrafoil grids (Quantifoil) that had been pre-treated by glow-discharge (PELCO easiGLOW: 60 s, 25 mA, 0.39 mBar). […]

B1: RNase E 960 – 1061 wildtype: wildtype RNase E peptide 960–1061 (peptide)
chain: VVETAEVVVAEPEVVAQPAAPVVAEVAAEVETVAAVEPEVTVEHNHATAPMTRAPAPEYVPEAPRHSDWQRPTFAFEGKGAAGGHTATHHASAAPARPQPVE
modifications: left off: His6, N-terminal, cleaved | MBP, N-terminal, cleaved | intein, C-terminal, cleaved | choline-binding domain, C-terminal, cleaved
- binding mode / stoichiometry with E. coli PNPase core: interacting with two protomers of the trimeric PNPase core
